Data as given in paper PMC8055526.
Blank lines part the entries; values can stand above or below the molecule they belong to.

What was measured:
sFlt-1 (Homo sapiens) = sFlt-1 (Homo sapiens) (UniProt P17948); settings: cited from earlier work
human VEGF (human) [1] = biological target: human VEGF (human) (UniProt P15692)
human VEGF (human) [2] = biological target: human VEGF (human) (UniProt P15692); remark: listed apart in the source
mouse VEGF (mouse) = mouse VEGF (mouse) (UniProt Q00731)

Chain of UniProt P17948 (P17948 27-1338): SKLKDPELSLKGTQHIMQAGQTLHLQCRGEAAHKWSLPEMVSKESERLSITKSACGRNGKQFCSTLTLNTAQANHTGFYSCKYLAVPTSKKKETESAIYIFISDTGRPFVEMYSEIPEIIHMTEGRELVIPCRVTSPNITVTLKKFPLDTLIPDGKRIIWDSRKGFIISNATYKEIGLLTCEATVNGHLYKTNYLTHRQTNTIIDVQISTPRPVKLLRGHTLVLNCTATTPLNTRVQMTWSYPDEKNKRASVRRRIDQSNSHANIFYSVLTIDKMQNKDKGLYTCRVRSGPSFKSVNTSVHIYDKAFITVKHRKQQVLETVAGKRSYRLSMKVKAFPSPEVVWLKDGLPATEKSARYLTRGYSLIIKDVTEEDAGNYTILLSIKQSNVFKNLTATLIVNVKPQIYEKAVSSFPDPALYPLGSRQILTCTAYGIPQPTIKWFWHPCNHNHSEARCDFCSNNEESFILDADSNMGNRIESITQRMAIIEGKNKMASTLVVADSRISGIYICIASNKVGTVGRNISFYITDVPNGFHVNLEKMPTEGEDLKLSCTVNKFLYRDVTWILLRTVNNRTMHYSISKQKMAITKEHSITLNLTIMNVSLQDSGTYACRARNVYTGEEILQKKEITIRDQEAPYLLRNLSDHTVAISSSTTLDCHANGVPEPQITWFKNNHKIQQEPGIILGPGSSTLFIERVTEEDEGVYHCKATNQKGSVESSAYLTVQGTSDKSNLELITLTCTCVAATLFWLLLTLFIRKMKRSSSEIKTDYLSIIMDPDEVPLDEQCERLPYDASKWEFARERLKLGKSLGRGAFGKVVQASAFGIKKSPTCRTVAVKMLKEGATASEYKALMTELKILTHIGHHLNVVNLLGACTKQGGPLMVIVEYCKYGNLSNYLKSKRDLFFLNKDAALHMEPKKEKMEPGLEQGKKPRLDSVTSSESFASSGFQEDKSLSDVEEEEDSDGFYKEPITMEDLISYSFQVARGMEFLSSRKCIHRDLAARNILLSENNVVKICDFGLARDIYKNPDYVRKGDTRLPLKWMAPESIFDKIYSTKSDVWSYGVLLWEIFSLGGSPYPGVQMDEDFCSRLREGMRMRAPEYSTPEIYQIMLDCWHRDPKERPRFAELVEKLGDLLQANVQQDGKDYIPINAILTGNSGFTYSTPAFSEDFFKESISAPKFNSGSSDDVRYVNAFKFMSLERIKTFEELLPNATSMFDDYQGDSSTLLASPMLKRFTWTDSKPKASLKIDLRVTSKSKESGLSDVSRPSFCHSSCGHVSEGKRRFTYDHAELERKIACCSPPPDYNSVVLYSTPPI

Molecule: VEGF (from UniProt P15692)
Kd (sFlt-1 (Homo sapiens)): 30 pM

VEGFR-2 phosphorylation in HUVECs with human VEGF, human sFlt-1 and a 4-fold molar excess of the antibody 21B3 (no letters) (human VEGF (human) [1]): 85 % of maximum
VEGFR-2 phosphorylation in HUVECs with VEGF, human sFlt-1 and 2 times to 4 times molar excess of the antibody 27H6 (human VEGF (human) [2]): 89 % of maximum
Molecule: human recombinant VEGFR-1/Flt-1 Fc chimera (from UniProt P17948-2 27-687) (Fc fusion)

VEGFR-2 phosphorylation in HUVECs with mouse VEGF, mouse sFlt-1 and a 10-fold molar excess of the antibody 21B3 (no letters) (mouse VEGF (mouse)): 85 % of maximum
B1: mouse recombinant VEGFR-1/Flt-1 Fc chimera (Fc fusion)
chain: YGSGSKLKVPELSLKGTQHVMQAGQTLFLKCRGEAAHSWSLPTTVSQEDKRLSITPPSACGRDNRQFCSTLTLDTAQANHTGLYTCRYLPTSTSKKKKAESSIYIFVSDAGSPFIEMHTDIPKLVHMTEGRQLIIPCRVTSPNVTVTLKKFPFDTLTPDGQRITWDSRRGFIIANATYKEIGLLNCEATVNGHLYQTNYLTHRQTNTILDVQIRPPSPVRLLHGQTLVLNCTATTELNTRVQMSWNYPGKATKRASIRQRIDRSHSHNNVFHSVLKINNVESRDKGLYTCRVKSGSSFQSFNTSVHVYEKGFISVKHRKQPVQETTAGRRSYRLSMKVKAFPSPEIVWLKDGSPATLKSARYLVHGYSLIIKDVTTEDAGDYTILLGIKQSRLFKNLTATLIVNVKPQIYEKSVSSLPSPPLYPLGSRQVLTCTVYGIPRPTITWLWHPCHHNHSKERYDFCTENEESFILDPSSNLGNRIESISQRMTVIEGTNKTVSTLVVADSQTPGIYSCRAFNKIGTVERNIKFYVTDVPNGFHVSLEKMPAEGEDLKLSCVVNKFLYRDITWILLRTVNNRTMHHSISKQKMATTQDYSITLNLVIKNVSLEDSGTYACRARNIYTGEDILRKTEVLVRDSEAPHLLQNLSDYEVSISGSTTLDCQARGVPAPQITWFKNNHKIQQEPGIILGPGNSTLFIERVTEEDEGVYRCRATNQKGAVESAAYLTVQGTSDKSNLE
